This series is described as follows: amyloid nucleation score (Sup35N fusion, yeast selection) (log enrichment); library NNK1; higher = more nucleation; inactive = no reads after selection. In short, it runs like this:
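Three technical output replicates were used for random libraries. Psi-negative yeast expressing peptides of 20 random codons fused to Sup35N were induced with 100 μM copper sulfate for 24 hours and grown 7 days at 30°C on medium lacking adenine and uracil, and input and output plasmid inserts were Illumina-sequenced, excluding sequences with under 100 input reads. The nucleation score is the DiMSum log enrichment of output over input reads, centred on the mode score of non-aggregating sequences.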

± gives the uncertainty stated by the source.

Substance YIVRQECSRIQYLTDM had an amyloid nucleation score of 1.22 ± 0.73. The same measure for TVFYMRPVGSGTGNLNLLQL: 0.906 ± 1. The same measure for WRMRYKC: -0.338 ± 1.2; for FMPMNVSNKTSELRYFCNGP: 0.417 ± 0.74. Substance SHPTNFSCIVVSARQGVKKI registered an amyloid nucleation score of -0.148 ± 0.79. As to KCHRPWYSCLIC, the amyloid nucleation score was 1.98 ± 0.61. The figure for DMSIKFCEPDFLLRNEQHNL is 0.382 ± 0.3; for LHCARGLVRRNMSSSLRWLA it is “inactive”. Substance QVTRYYGGNAVR displayed an amyloid nucleation score of 1.59 ± 0.57. The figure for MVAIRWYRMGLDDMNSGTVN is 0.094 ± 0.27. The same measure for GNWYLCTGF: 1.58 ± 0.1. The same measure for VGTTLRFWGKLFNPVDKAIR: -0.619 ± 0.46. On to IAFTVWADWYLPKLGLIREL, for which the amyloid nucleation score was 0.508 ± 0.74.

Substance HRQGYVWYLLR had an amyloid nucleation score of 1.43 ± 0.24. For the substance PGARSLLGSYYV, the amyloid nucleation score turned out to be 0.058 ± 0.84. The same measure for NWHVGIIGWRCMGHTQKYVN: 0.038 ± 0.22. The same measure for TNFCGVNPGRIIRLWEDRSW: -0.762 ± 0.45.

RWLETVGECCCESARVFCA yielded an amyloid nucleation score of -0.45 ± 0.59. In the case of KDICSYGLNYSLDNVVYNLV, the amyloid nucleation score turned out to be 0.809 ± 0.39.

As to VRAPRSVWRSFAAA, the amyloid nucleation score was -0.107 ± 0.59. The figure for CASWTCAEKAEHTMYMEDYP is 0.02 ± 0.36; for KEIIEMWSTFTYNQIWCDWI it is -0.322 ± 0.42.

For the substance CRDNCCPLVVYW, the amyloid nucleation score came to 0.531 ± 0.33. The same measure for LHIIRRNRDSIAFVYWTV: 0.756 ± 0.41; for MMPSECMEFLMCLWFGSGSD: -0.722 ± 0.55. The figure for DYESKSNFPYTQVNAITW is -1.05 ± 1.2; for LSALFLVPHYLDMVNLHSWR it is -0.254 ± 0.44; for NPMLLPSEPSS it is -0.181 ± 0.42.

NGCFIAFLTMFTYFTCTRVS gave an amyloid nucleation score of -0.76 ± 0.8. The substance RAGQVRNNDTSVEFAMCGRW showed an amyloid nucleation score of 0.355 ± 0.38.

The substance FVGNPSRRWLCHCKFIAGGH came in with an amyloid nucleation score of 0.137 ± 0.38. The figure for TVMTRRSLWRTVGLNWVMLV is 1.53 ± 0.19. Substance NYRSGVLELWYGRSMPWS registered an amyloid nucleation score of 0.327 ± 0.42.

Regarding TIFLSF, the amyloid nucleation score was -0.284 ± 0.27. The substance YFHIESGLYYTWFMLYGPGR had an amyloid nucleation score of 0.154 ± 0.61. TCSSLRSLLWSCVVRALLWT displayed an amyloid nucleation score of -0.528 ± 1.2. The same measure for AIIDMDMSFRSGGCTNGVDV: 1.06 ± 0.32; for HKIHAVQLLQVRYLNKRLAG: 0.96 ± 0.17. The same measure for PLLYLPNWLISCFYLLF: 0.263 ± 0.53.

The substance NWSHGLLTPNVCW gave an amyloid nucleation score of -0.573 ± 1.4. Consider RVCQKCCPVVYAMNQWIFDW, for which the amyloid nucleation score amounted to 7.536 ± 0.051. Substance SCNCHWY yielded an amyloid nucleation score of 1.49 ± 0.74. Substance LQFNSLAVLGVPGEMNEQTG yielded an amyloid nucleation score of -0.228 ± 0.58. The same measure for GPYCHGWNLKNERAVSLRG: -0.647 ± 0.47; for FQYTACIN: 1.08 ± 0.57; for IRGYGAWGQWGSYRFRESES: 1.6 ± 0.17.

For the substance LFYLFPELMWDMQLCKVDGW, the amyloid nucleation score came to 1.4 ± 0.44. The figure for DGSGGPYIGILLWGLAKMSG is -0.488 ± 0.85; for DRATGISEAVEWHGRWVGKN it is -0.534 ± 0.83; for FSGLCRSTPGI it is -0.469 ± 0.32. In turn, SGSLGS had an amyloid nucleation score of 0.386 ± 0.84. VLRWLRKRSFSI yielded an amyloid nucleation score of -0.076 ± 0.6. The same measure for HAWVVVGRRGGKGLEAWCPV: -0.71 ± 0.81; for REVSMRDGGPVT: 0.298 ± 0.54. The figure for DNRLMHIIDMWCRSYFSGHT is -0.063 ± 1.4; for CRDRRS it is 1.91 ± 0.35. The same measure for LFRRRKITTVYIDKNAMLTS: “inactive”; for RPRHIFDNSKVYNMGPYFYD: 1.59 ± 0.56; for VSEFGFIVF: -0.315 ± 0.76. In turn, FFASCIRYDSRNCIGNLQLG came in with an amyloid nucleation score of 0.149 ± 0.64. The figure for YPGGILIRRVNIKLDGAAIV is -0.869 ± 0.68.

Substance SIFLCVSLSVTCETILAGLD yielded an amyloid nucleation score of 2.8 ± 0.16. The figure for GCSTYMVLMVGLGGGMLGGF is 1.32 ± 0.26; for PFMLRSNGQWTSYINCIFIS it is 7.865 ± 0.068; for YRPNLLNSLTPTKTSIGSVY it is 1.11 ± 0.6. The substance MVSHKDQRIGPLLASVAHVR returned an amyloid nucleation score of -1.69 ± 1.3. Take MLVLRMYYTRNS: the amyloid nucleation score was found to be 2.24 ± 0.23.

WDKADVFLDDVSASRSSLKM displayed an amyloid nucleation score of 3.31 ± 0.088. As for CYSAVPIYDFKYRPAGYYIS, the amyloid nucleation score result was “inactive”. As for GRGVLDYNGTTKKARVNRLC, the amyloid nucleation score result is “inactive”. VNSTMVPRVLME displayed an amyloid nucleation score of 0.935 ± 0.69. With VGEQPYFGVFTTRYVMARYA, the amyloid nucleation score was 0.487 ± 0.71.

Turning to IVDYVGCLRHYECYGWQPWG, the amyloid nucleation score stood at 0.225 ± 0.51. CGYLCNGKSGERSGIFGAHQ had an amyloid nucleation score of -0.088 ± 0.39. The same measure for WVLNG: -0.514 ± 0.34. For the substance FWKGASINYS, the amyloid nucleation score entry was “inactive”. Substance NVDSRFD registered an amyloid nucleation score of -1.1 ± 0.81.

CRFMNVRYGKRMKVDNTVMA gave an amyloid nucleation score of -0.891 ± 1.4. The same measure for RSHHIWGY: 0.353 ± 0.48.

For FAKLYLKSISVLLMHTDWVF, the amyloid nucleation score turned out to be 0.684 ± 0.62. The entry for RTSDLFAIMKVLDIMMSYTE is “inactive”; for TSRGKDLSTRVGGGAPPGFR it is -0.766 ± 1.6.

Regarding KHWSCRYWEEFGGMDHNLDW, the amyloid nucleation score is 1.1 ± 0.38. Take SGRWLYVLVPICMPYVAELS: the amyloid nucleation score result is “inactive”. The figure for FRMCCNYYICHLDGVILIG is 1.65 ± 0.26; for ESSYLMNKCSSAIQDWDWGR it is 0.321 ± 0.4; for DRLVGWVVWLHVVFPRMYVL it is 0.483 ± 0.72.

LCGISSSCYVVGSLRVIWLS gave an amyloid nucleation score of 0.147 ± 0.65.

Regarding PLPVVA, the amyloid nucleation score is 0.225 ± 0.5.

The substance AFFVAVCASWFPGLYRY yielded an amyloid nucleation score of 0.298 ± 0.23. The entry for GFLLGFCYPPQVQLVHVLTR is “inactive”; for NCVQARFDERCVRGLGCKFY it is -0.724 ± 0.64; for VNLYGVLMGSLLGGQRQHDV it is -1.1 ± 1.9.

EYVRRKFQPSCTVMRYCFAR yielded an amyloid nucleation score of 0.006 ± 0.77. The same measure for VIGSCRTCMS: 0.135 ± 0.3; for ARFMSLTRSSACETNVGVYL: 0.608 ± 0.32. In the case of DACIGWVRYRSILCCMVLVA, the amyloid nucleation score is -0.005 ± 1.7. RMFPCYIAV yielded an amyloid nucleation score of 0.015 ± 0.27. Turning to VLGDSARVCSGDGV, the amyloid nucleation score came to 0.494 ± 0.74.

For the substance MEYTYVQTSKYKHERNATWC, the amyloid nucleation score amounted to 0.008 ± 0.97. The figure for KRALQDRMLLEP is -0.286 ± 1; for SFHLSQFYKNTHMWLIVFES it is “inactive”. The figure for TNFLKSFHV is -1.95 ± 1.8.

Turning to QRRYRDTAGLNRNIRNICSK, the amyloid nucleation score was -0.257 ± 0.72. The same measure for TSSVGMWGQWYSRWNSRKCN: -0.573 ± 1.7; for KMRVHGLAVHRATQ: -0.737 ± 0.71; for RNDTSDVYGSSGRSNRP: 0.007 ± 0.37.

The substance SERDRLSLMRRVAM gave an amyloid nucleation score of -0.153 ± 1.4. The same measure for LVCFGFSNNCCELCCYYSNL: 0.765 ± 0.61.

Consider TTFFDLT, for which the amyloid nucleation score is 0.713 ± 0.74. The same measure for GAKICIYELVLHEMRACVAR: -0.282 ± 0.96; for CWASRSSCSLLYVRVVMRHC: 0.371 ± 0.57. Substance VVWEQSIDVILGYMGLGPD yielded an amyloid nucleation score of 0.381 ± 0.49. Regarding IVVGCGCPPRINCFV, the amyloid nucleation score was -0.444 ± 0.7.

GESKHKQSNECTQCC: the amyloid nucleation score was 1.11 ± 0.37.

In turn, LLPYSLMLRDLGFLKHYLGV returned an amyloid nucleation score of -0.264 ± 0.61.

Take SKLYLIEVFLYA: the amyloid nucleation score was -0.468 ± 0.66. The figure for LSSGSKYFSKVVDASLVCAC is 0.377 ± 0.77; for TGYLERRVGYYRVRFRCERS it is 0.022 ± 0.6. The entry for EWSFSYCGGVAFLSIEIEFL is “inactive”.

Values taken from the supplement of paper PMC12042874.
